We go through 3 molecules from patent US20240254233A1 (IMMUNEONCIA THERAPEUTICS, published 2024).

The target in one test is T1, recombinant human CD47 (human, UniProt Q08722 19-139, limits assumed).
T1 construct: also called single ligand (CD47)
Put plainly: ELISA, recombinant human CD47 coated at 50 ng/well, anti-human IgG Fcγ-HRP detection. In general terms: In an ELISA, binding on a coated surface is turned into a signal by an enzyme label.

Test [1] has as its target T2, recombinant human CD47-fc (human, UniProt Q08722 19-139, limits assumed).
T2 construct: Coated at 50 ng/well in the dual-ligand ELISA
Put plainly: dual-ligand (bridging) ELISA: CD47-fc coated, antibody titrated, then PD-L1-his at 50 ng/well, anti-his-HRP detection.

Another test has as its target T3, recombinant human PD-L1 (human, UniProt Q9NZQ7 19-238, limits assumed).
T3 construct: also called single ligand (PD-L1)
In words: ELISA, recombinant human PD-L1 coated at 75 ng/well, anti-human IgG Fcγ-HRP detection.

T1 sequence (Q08722 19-139 limits assumed): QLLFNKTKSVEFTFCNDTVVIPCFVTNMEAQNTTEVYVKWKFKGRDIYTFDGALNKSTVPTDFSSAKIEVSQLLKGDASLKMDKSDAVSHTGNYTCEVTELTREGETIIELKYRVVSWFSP
T3 sequence (Q9NZQ7 19-238 limits assumed): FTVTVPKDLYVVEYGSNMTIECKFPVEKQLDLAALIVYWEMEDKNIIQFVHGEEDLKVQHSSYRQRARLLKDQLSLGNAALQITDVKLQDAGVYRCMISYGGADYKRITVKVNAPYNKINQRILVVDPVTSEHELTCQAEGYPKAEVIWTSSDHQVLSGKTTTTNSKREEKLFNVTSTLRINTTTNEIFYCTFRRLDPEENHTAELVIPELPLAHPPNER
T2 sequence (Q08722 19-139 limits assumed): as the sequence (Q08722 19-139 limits assumed) above

B1: IMC-201 (bispecific antibody, human IgG1, lambda)
heavy: not shown
light: QSALTQPASVSGSPGQSISISCTGTSSDVGGHNYVSWYQQHPGKAPKLMIYDVRNRPSGVSNRFSGSKSGSTASLTISGLQTEDEADYYCNSYTGSRTYVFGSGTKLTVLGQPKAAPSVTLFPPSSEELQANKATLVCLISDFYPGAVTVAWKADSSPVKAGVETTTPSKQSNNKYAASSYLSLTPEQWKSHRSYSCQVTHEGSTVEKTVAPTECS
notes: also called Ab 1159.1
As a reminder, the EC50 is the concentration that produces a half-maximal response. Turning to B1, the EC50 with recombinant human CD47 was 4.09 ng/mL; in test [1] it was 17.4 ng/mL; in the test with recombinant human PD-L1, 7.24 ng/mL.

B2: IMC-002 (antibody, V domains shown)
VH: QVQLVQSGAEVKKPGASVKVSCKASGYTFTSYYMHWVRQAPGQGLEWMGIINPSGGSTSYAQKFQGRVTMTRDTSTSTVYMELSSLRSEDTAVYYCARSTLWVSEFDYWGQGTLVTVSS
VL: QSALTQPASVSGSPGQSISISCTGTSSDVGGHNYVSWYQQHPGKAPKLMIYDVRNRPSGVSNRFSGSKSGSTASLTISGLQTEDEADYYCNSYTGSRTYVFGSGTKLTVLG
For B2, in the test with recombinant human CD47, the EC50 was found to be 2.77 ng/mL.

B3: IMC-001 (antibody, V domains shown)
VH: QMQLVQSGAEVKKPGSSVKVSCKASGGTFSSYAYSWVRQAPGQGLEWMGGIIPSFGTANYAQKFQGRVTITADESTSTAYMELSSLRSEDTAVYYCARGPIVATITPLDYWGQGTLVTVSS
VL: SYVLTQPPSVSVAPGKTATIACGGENIGRKTVHWYQQKPGQAPVLVIYYDSDRPSGIPERFSGSNSGNTATLTISRVEAGDEADYYCLVWDSSSDHRIFGGGTKLTVL
As for B3, the EC50 with recombinant human PD-L1 stood at 0.989 ng/mL.
